Tests used:
Details in all cases: both partners purified
[1] = biological target: T1, recombinant C3d ( (human, cynomolgus monkey or …, UniProt P01024 1002-1303)); test: SPR; Biacore 3000 or T200, 25°C; recombinant C3d amine-coupled on a CM5 chip at high density (4,200 RU); CR2-fH1–5 injected at 0–1,000 nM, 30 μL/min; Langmuir 1:1 fit
T1 construct: C3d fragment of complement C3, recombinant, amine-coupled to the CM5 chip; source: recombinant

[2] = biological target: T1, recombinant C3d; test: SPR; Biacore 3000 or T200, 25°C; recombinant C3d amine-coupled on a CM5 chip at medium-high density (2,500 RU); CR2-fH1–5 injected at 0–1,000 nM, 30 μL/min; Langmuir 1:1 fit
[3] = biological target: T1, recombinant C3d; test: SPR; Biacore 3000 or T200, 25°C; recombinant C3d amine-coupled on a CM5 chip at medium density (750 RU); CR2-fH1–5 injected at 0–1,000 nM, 30 μL/min; Langmuir 1:1 fit
[4] = biological target: T1, recombinant C3d; test: SPR; Biacore 3000 or T200, 25°C; recombinant C3d amine-coupled on a CM5 chip at low density (10 RU); CR2-fH1–5 injected at 0–1,000 nM, 30 μL/min, 120 s association, 180 s dissociation; Langmuir 1:1 fit

T1 sequence (P01024 1002-1303): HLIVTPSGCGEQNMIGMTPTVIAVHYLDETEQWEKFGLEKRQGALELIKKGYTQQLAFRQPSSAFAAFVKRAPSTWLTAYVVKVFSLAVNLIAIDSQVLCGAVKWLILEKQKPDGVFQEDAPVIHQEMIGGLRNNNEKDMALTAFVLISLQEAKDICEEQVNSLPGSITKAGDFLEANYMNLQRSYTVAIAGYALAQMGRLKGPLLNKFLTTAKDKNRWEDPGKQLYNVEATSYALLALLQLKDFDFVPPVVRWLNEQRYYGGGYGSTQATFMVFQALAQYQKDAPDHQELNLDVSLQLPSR

Kd [1]: 1890 nM
Kd [2]: 1890 nM
Kd [3]: 1260 nM
Kd [4]: 1080 nM
B1: TT30 (other)
chain: ISCGSPPPILNGRISYYSTPIAVGTVIRYSCSGTFRLIGEKSLLCITKDKVDGTWDKPAPKCEYFNKYSSCPEPIVPGGYKIRGSTPYRHGDSVTFACKTNFSMNGNKSVWCQANNMWGPTRLPTCVSVFPLECPALPMIHNGHHTSENVGSIAPGLSVTYSCESGYLLVGEKIINCLSSGKWSAVPPTCEEARCKSLGRFPNGKVKEPPILRVGVTANFFCDEGYRLQGPPSSRCVIAGQGVAWTKMPVCEEEDCNELPPRRNTEILTGSWSDQTYPEGTQAIYKCRPGYRSLGNVIMVCRKGEWVALNPLRKCQKRPCGHPGDTPFGTFTLTGGNVFEYGVKAVYTCNEGYQLLGEINYRECDTDGWTNDIPICEVVKCLPVTAPENGKIVSSAMEPDREYHFGQAVRFVCNSGYKIEGDEEMHCSDDGFWSKEKPKCVEISCKSPDVINGSPISQKIIYKENERFQYKCNMGYEYSERGDAVCTESGWRPLPSCEEKSCDNPYIPNGDYSPLRIKHRTGDEITYQCRNGFYPATRGNTAKCTSTGWIPAPRCTL
modifications: Limits are not printed. TT30 is taken as CR2 SCR1-4 (the C3d-binding end) fused directly to factor H SCR1-5, from general knowledge of TT30, with limits from the UniProt Sushi domain features. …

Source: PMC11163200, “C3d-Targeted factor H inhibits tissue complement in disease models and reduces glomerular injury without affecting circulating complement” (Molecular Therapy, 2024)
